Where two headings read alike, the source gives them in different places.
Columns and labels:
human S100A6 (human) [1] = experiment: ITC
human S100A6 (human) [2] = experiment: ITC; remark: listed apart in the source

Chain of peptide from Siah-interacting protein (SIP) (Q9HB71 188-218): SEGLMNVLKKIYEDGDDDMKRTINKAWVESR

- Kd (human S100A6 (human) [1]): 26 µM
- dH (human S100A6 (human) [1]): 2.9 kcal/mol
- fx comp (human S100A6 (human) [1]): 1.5
- Kd (human S100A6 (human) [2]): 20 µM
Substance: peptide from Siah-interacting protein (SIP) (from UniProt Q9HB71 188-218)

Reference: article PMC5995566
